Data published in patent publication US8937048B2, “Anti-angiogenic compounds” (Covx Technologies Ireland, Limited, priority 2008, dated 2015).
Where a SMILES comes first, the peptide text is derived from it. [ ]: non-standard residue; d: D form. The star is where a group is joined. Phe(4-COOH) = N[C@@H](Cc1ccc(C(=O)O)cc1)C(=O)O; X1 = O=C(COCC(=O)*)Nc1ccc(CCC(=O)N2CCC2=O)cc1; Nva = CCC[C@H](N)C(=O)O

Tests used:
[1] = target: T1, human angiopoietin-2 protein (Homo sapiens, UniProt O15123); assay: Ang2 competitive ELISA (Ang-2 coated, Tie-2-Fc competition); format: binding
T1 construct: purchased R&D Systems
T1 sequence (O15123 19-496): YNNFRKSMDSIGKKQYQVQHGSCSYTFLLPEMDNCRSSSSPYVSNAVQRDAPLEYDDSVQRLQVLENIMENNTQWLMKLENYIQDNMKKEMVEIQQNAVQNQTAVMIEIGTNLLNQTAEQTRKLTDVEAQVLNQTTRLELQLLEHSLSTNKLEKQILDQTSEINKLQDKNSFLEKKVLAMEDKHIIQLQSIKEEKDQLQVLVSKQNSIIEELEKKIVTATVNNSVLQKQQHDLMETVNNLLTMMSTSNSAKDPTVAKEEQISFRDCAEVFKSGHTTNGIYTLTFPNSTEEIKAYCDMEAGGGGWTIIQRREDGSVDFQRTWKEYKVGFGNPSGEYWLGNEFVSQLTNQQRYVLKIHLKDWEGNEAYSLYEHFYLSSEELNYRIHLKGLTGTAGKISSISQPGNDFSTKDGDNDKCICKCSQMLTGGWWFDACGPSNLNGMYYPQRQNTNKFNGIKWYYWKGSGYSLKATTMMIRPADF
Description: The ability of Ang2 binding compounds to interact with Ang2 was measured by competition with Tie-2. These tests were described in US2008166364 (and also in PCT/IE2007/000110), whose contents are herein incorporated by reference in their entirety. In particular, those portions of PCT/IE2007/000110 and US2008166364 detailing the advantages and disadvantages of various Ang2-binding peptides, and the advantages and disadvantages of covalently linking certain Ang2-binding peptides to catalytic antibodies (and those portions specifically relating to linking to h38C2), as well as the advantages and disadvantages of using specific residues of the respective Ang2-specific peptide as the linking residue (in this context, linking residue meaning the residue covalently linked to the linker (for example as used herein in Example 4)). For competitive ELISA, human angiopoietin-2 protein and Tie-2-Fc (R&D Systems) were reconstituted without carrier protein. Mouse anti-human Tie-2 (Pharmingen) was used as the primary antibody and goat anti-mouse-IgG 1-HRP (Pierce) was used as the secondary antibody. TMB substrate from Pierce was used.
High-binding half-well plates were coated with Ang-2 (100 ng/well) in 50 W PBS and incubated at 4° C. overnight. […] Color development was monitored and stopped with 25 μl of 2 M H2SO4. OD450 nm with a correction wavelength of 540 nm was measured.

[2] = Mouse half-life (T 1/2) and screening half-life of Ang2 binding compounds; format: in vivo, Swiss Webster mice; conditions: for half-life: mouse, in vivo, read-out: T ½ (Sc) hours, screening half life
Description: For “screening” T ½, test compounds were intravenously administered into male Swiss Webster mice. Blood samples were taken from 4 mice per time point via retroorbital sinus bleed at the following time points: 0.08, 5, and 32 hours. Blood level of test compounds were determined by ELISA. The data were reported as the percentage of test compounds at 32 hours versus 5 min. Normal T ½ was calculated in a similar fashion, after undergoing additional data analysis using WinNonlin version 4.1 (Pharsight Corporation). The data was fit to a model based upon the shape of the curve (i.e. a bi-exponential decline will be fit to a two compartment model, etc.) The criteria for best fit (i.e. lowest % CV) was based on iterative re-weighted least squares.

[3] = target: T1, human angiopoietin-2 protein; assay: Ang2 reverse competition ELISA (Tie-2-Fc coated); format: binding; conditions: Table 5, column T; read-out: Ang-2 T IC50
Description: Plates were washed three times with washing buffer (0.1% Tween 20, PBS, pH 7.4) and blocked with Superblock, 150 μl/well at RT for 1 hour. Plates were washed three times. […] Plates were washed 3 times, and 50 W of streptavidin HRP (1:200 dilution in Superblock) was added at RT for 20 minutes. […] OD450 nm with a correction wavelength of 540 nm was measured.

[4] = Table 5, screening half life (in parentheses), shorter test period

## CSCC[C@H](NC(=O)[C@H](Cc1ccccc1)NC(=O)[C@H](CCC(N)=O)NC(=O)[C@H](CC(=O)O)NC(=O)[C@H](Cc1ccc(O)cc1)NC(=O)[C@H](CC(C)C)NC(=O)[C@@H](NC(=O)[C@H](CCCCN)NC(=O)[C@H](CC(=O)O)NC(=O)[C@H](CC(C)C)NC(=O)[C@H](CCC(=O)O)NC(=O)[C@H](CC(=O)O)NC(=O)[C@H](CC(C)C)NC(=O)[C@@H]1CCCN1C(=O)[C@H](CCC(N)=O)NC(=O)[C@H](Cc1ccc(O)cc1)NC(=O)[C@H](CCCCN)NC(=O)[C@H](CCC(N)=O)NC(C)=O)[C@@H](C)O)C(=O)N[C@@H](CC(C)C)C(=O)N[C@@H](CCC(N)=O)C(=O)N[C@@H](CCC(N)=O)C(=O)NCC(N)=O [Compound 4021]
[1]; Table 6, column P
  IC50: 36.4 nM

## CCC[C@H](NC(=O)[C@@H](NC(=O)[C@H](CCCCNC(=O)COCC(=O)Nc1ccc(CCC(=O)N2CCC2=O)cc1)NC(=O)[C@H](CC(=O)O)NC(=O)[C@H](CC(C)C)NC(=O)[C@H](CCC(=O)O)NC(=O)[C@H](CC(=O)O)NC(=O)[C@H](CC(C)C)NC(=O)[C@@H]1CCCN1C(=O)[C@H](CCC(N)=O)NC(=O)[C@H](Cc1ccc(O)cc1)NC(=O)[C@H](CCCCNC(C)=O)NC(=O)[C@H](CCC(N)=O)NC(C)=O)[C@@H](C)O)C(=O)N[C@@H](Cc1ccc(O)cc1)C(=O)N[C@@H](CC(=O)O)C(=O)N[C@@H](CCC(N)=O)C(=O)N[C@@H](Cc1ccccc1)C(=O)N[C@@H](CCSC)C(=O)N[C@@H](CC(C)C)C(=O)N[C@@H](CCC(N)=O)C(=O)N[C@@H](CCC(N)=O)C(=O)NCC(N)=O [Compound 4041] (Ac-QK(Ac)YQPLDELDK(X1)T[Nva]YDQFMLQQG-NH2)
[2]; [4]
  half-life: 36 h

## Q(Kac)Y QPL DEL DK(4P)T LYD QFM LQQ G [Compound 4024]
[1]; Table 5, column P
  IC50: 17.4 nM
[2]; Table 5, half-life (value not in parentheses)
  T ½ hours: 104 h
[2]; [4]
  T ½ (Sc) hours, screening half life: (27) hours
[3]
  IC50: 207 nM

## CSCC[C@H](NC(=O)[C@H](Cc1ccccc1)NC(=O)[C@H](CCC(N)=O)NC(=O)[C@H](CC(=O)O)NC(=O)[C@H](Cc1ccc(C(=O)O)cc1)NC(=O)[C@H](CC(C)C)NC(=O)[C@@H](NC(=O)[C@H](CCCCNC(=O)COCC(=O)Nc1ccc(CCC(=O)N2CCC2=O)cc1)NC(=O)[C@H](CC(=O)O)NC(=O)[C@H](CC(C)C)NC(=O)[C@H](CCC(=O)O)NC(=O)[C@H](CC(=O)O)NC(=O)[C@H](CC(C)C)NC(=O)[C@@H]1CCCN1C(=O)[C@H](CCC(N)=O)NC(=O)[C@H](Cc1ccc(O)cc1)NC(=O)[C@H](CC(N)=O)NC(=O)[C@H](CCC(N)=O)NC(C)=O)[C@@H](C)O)C(=O)N[C@@H](CC(C)C)C(=O)N[C@@H](CCC(N)=O)C(=O)N[C@@H](CCC(N)=O)C(=O)NCC(N)=O [Compound 4057] (Ac-QNYQPLDELDK(X1)TL[Phe(4-COOH)]DQFMLQQG-NH2)
[2]; [4]
  half-life: 11 h

## CSCC[C@H](NC(=O)[C@H](Cc1ccccc1)NC(=O)[C@H](CCC(N)=O)NC(=O)[C@H](CC(=O)O)NC(=O)[C@H](Cc1ccc(O)cc1)NC(=O)[C@H](CCC(C)C)NC(=O)[C@@H](NC(=O)[C@H](CCCCNC(=O)COCC(=O)Nc1ccc(CCC(=O)N2CCC2=O)cc1)NC(=O)[C@H](CC(=O)O)NC(=O)[C@H](CC(C)C)NC(=O)[C@H](CCC(=O)O)NC(=O)[C@H](CC(=O)O)NC(=O)[C@H](CC(C)C)NC(=O)[C@@H]1CCCN1C(=O)[C@H](CCC(N)=O)NC(=O)[C@H](Cc1ccc(O)cc1)NC(=O)[C@H](CCCCNC(C)=O)NC(=O)[C@H](CCC(N)=O)NC(C)=O)[C@@H](C)O)C(=O)N[C@@H](CC(C)C)C(=O)N[C@@H](CCC(N)=O)C(=O)N[C@@H](CCC(N)=O)C(=O)NCC(N)=O [Compound 4042]
[2]; [4]
  half-life: 42 h

## CSCC[C@H](NC(=O)[C@H](Cc1ccccc1)NC(=O)[C@H](CCC(N)=O)NC(=O)[C@H](CC(=O)O)NC(=O)[C@H](Cc1ccc(O)cc1)NC(=O)[C@H](CC(C)C)NC(=O)[C@@H](NC(=O)[C@H](CCCCNC(=O)COCC(=O)Nc1ccc(CCC(=O)N2CCC2=O)cc1)NC(=O)[C@H](CC(=O)O)NC(=O)[C@H](CC(C)C)NC(=O)[C@H](CCC(=O)O)NC(=O)[C@H](CC(=O)O)NC(=O)[C@H](CC(C)C)NC(=O)[C@@H]1CCCN1C(=O)[C@H](CCC(N)=O)NC(=O)[C@H](Cc1ccc(O)cc1)NC(=O)[C@H](CCCCNC(C)=O)NC(=O)[C@H](CCC(N)=O)NC(=O)CCOCCOCCNC(C)=O)[C@@H](C)O)C(=O)N[C@@H](CC(C)C)C(=O)N[C@@H](CCC(N)=O)C(=O)N[C@@H](CCC(N)=O)C(=O)NCC(N)=O [Compound 4052, (Amido 2-PEG)QKacY QPL DEL DK(0P)T LYD QFMLQQ G]
[2]; [4]
  half-life: 31 h
